Experiments:
[1] = target: T1, huCD8a-Fc (C-terminal hFc-tagged human CD8α receptor) (human, UniProt P01732 22-182); experiment: SPR
T1 construct: the whole entry is named; also called CD8α-Fc; CD8α-hFc; not shown: human Fc tag at the C-terminus

[2] = target: T2, one-armed single chain huCD8α/huCD8β-Fc (human, UniProt P10966 22-170); experiment: affinity measurement, method not named in the sentence (SPR per paragraph 284)
T2 construct: the whole entry is named; also called Human CD8αβ; CD8αβ-Fc; not shown: linker between CD8α and CD8β; not described; one polypeptide chain of an Fc (captured with an anti-HuIgG1 Fc kit); second Fc chain without fusion (one-armed format)
T2 sequence (P10966 other isoform, or with tags, fused parts or gaps): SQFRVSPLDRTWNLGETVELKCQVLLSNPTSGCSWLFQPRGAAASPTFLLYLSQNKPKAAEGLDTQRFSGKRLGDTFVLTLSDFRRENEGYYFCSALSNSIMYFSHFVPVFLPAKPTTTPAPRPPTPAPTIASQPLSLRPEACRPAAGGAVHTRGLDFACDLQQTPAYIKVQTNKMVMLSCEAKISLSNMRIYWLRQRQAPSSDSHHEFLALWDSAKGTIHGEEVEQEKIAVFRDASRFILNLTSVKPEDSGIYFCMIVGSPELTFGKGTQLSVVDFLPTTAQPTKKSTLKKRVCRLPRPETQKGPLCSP

[3] = target: T3, rhesus monkey CD8 in CD8-rich tissues (in vivo) (rhesus monkey, UniProt P01732 23-235 (human entry)); experiment: PET imaging in rhesus monkey
T3 construct: the target was seen by PET in lymph nodes, thymus and spleen; also called rhesus CD8
T3 sequence (P01732 other isoform, or with tags, fused parts or gaps limits assumed): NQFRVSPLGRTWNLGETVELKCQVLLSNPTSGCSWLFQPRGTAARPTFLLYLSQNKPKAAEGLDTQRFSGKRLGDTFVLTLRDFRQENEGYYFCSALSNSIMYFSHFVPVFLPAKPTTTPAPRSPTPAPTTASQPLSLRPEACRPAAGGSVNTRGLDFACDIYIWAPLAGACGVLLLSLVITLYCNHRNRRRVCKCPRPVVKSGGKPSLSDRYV
Description: Imaging experiments were performed with ¹⁸F-anti-CD8 VHH in a rhesus monkey to determine whether uptake could be detected in tissues that are normally CD8-rich. A rhesus monkey (2.5 kg) was injected with 64 micrograms ¹⁸F-anti-CD8 VHH containing a 1.2 mCi radiation dose.

[4] = target: T4, human CD8 on cells (HPBALL cells, TALL1 cells, CD8+ T cells of human whole blood and PBMCs) (human, UniProt P01732 22-234); experiment: PET MIP of TALL1 tumor xenografted mice
T4 construct: also called huCD8
T4 sequence (P01732 22-234 limits assumed): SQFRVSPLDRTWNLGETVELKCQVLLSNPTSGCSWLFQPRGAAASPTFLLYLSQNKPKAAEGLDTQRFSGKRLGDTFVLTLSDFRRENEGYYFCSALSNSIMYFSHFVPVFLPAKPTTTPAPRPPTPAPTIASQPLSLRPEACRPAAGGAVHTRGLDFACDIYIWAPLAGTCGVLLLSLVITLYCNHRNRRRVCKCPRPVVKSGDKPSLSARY

[5] = target: T2, one-armed single chain huCD8α/huCD8β-Fc; experiment: SPR, Biacore T200, 37°C, CD8αβ-Fc captured, VHH as analyte
Description: (§1) The binding affinity for each VHH variant to both human (a one-armed single chain huCD8α/huCD8β-Fc) and cynomolgus monkey (a one-armed single chain cynoCD8α/cynoCD8β-Fc) were determined by Surface Plasmon Resonance (SPR). SPR experiments were carried out on the Biacore T200 (GE Healthcare) at 37° C. using HBS-P+ (GE Healthcare) running buffer. 1.5 μg/mL of CD8αβ-Fc was captured using an anti-HuIgG1 Fc capture kit (GE Healthcare) and monomeric VHHs were added as the analyte in solution at a flow rate of 100 μL/min. The VHH was titrated using a dilution series from 100-0 nM. Sensorgrams were fit to a 1:1 Langmuir model to identify kinetic parameters, including KD, kₒₙ and koff.

[6] = target: T5, one-armed single chain cynoCD8α/cynoCD8β-Fc (cynomolgus monkey); experiment: as above
T5 construct: the whole entry is named; also called Cyno CD8αβ; CD8αβ-Fc; not shown: linker between CD8α and CD8β; not described; one polypeptide chain of an Fc (captured with an anti-HuIgG1 Fc kit); second Fc chain without fusion (one-armed format)
T5 sequence (P01732 other isoform, or with tags, fused parts or gaps): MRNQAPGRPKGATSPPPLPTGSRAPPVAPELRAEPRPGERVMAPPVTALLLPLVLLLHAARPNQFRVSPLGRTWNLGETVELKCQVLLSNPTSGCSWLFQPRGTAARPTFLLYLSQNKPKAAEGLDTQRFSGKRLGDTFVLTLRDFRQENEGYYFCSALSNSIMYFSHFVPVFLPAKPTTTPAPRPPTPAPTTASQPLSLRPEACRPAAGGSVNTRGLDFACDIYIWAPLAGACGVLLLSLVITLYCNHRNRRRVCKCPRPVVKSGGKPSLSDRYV
Description: as §1

T1 sequence (P01732 22-182 limits assumed): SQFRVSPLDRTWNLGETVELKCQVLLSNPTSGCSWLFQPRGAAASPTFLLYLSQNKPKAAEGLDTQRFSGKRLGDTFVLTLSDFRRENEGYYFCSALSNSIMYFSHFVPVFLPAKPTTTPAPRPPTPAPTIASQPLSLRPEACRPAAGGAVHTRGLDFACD

Kd [5] | koff [5] | kon [5] | Kd [6] | koff [6] | kon [6] | Binder | also measured
– | – | – | – | – | – | 2C8 VHH (llama anti-CD8 VHH wt2C8) (VHH, Monomeric VHH; VHHs were made both with a C-terminal His tag and tagless; also called 2C8.1-H; wild-type 2C8) VHH: EVQLVESGGGLVQAGGSLRLSCAASGFTFDDYAIGWFRQAPGKGREGVLCIRIFDRHTYSADSVKGRFTISSDNAQNTVYLHMNSLKPEDTAVYYCAAGSFWACTRPEGAMDYWGKGTQVTVSS | binding result [1]: binds
– | – | – | – | – | – | 2C8 with the A99G and A100fD mutations (VHH, name in Kabat numbering) VHH: EVQLVESGGGLVQAGGSLRLSCAASGFTFDDYAIGWFRQAPGKGREGVLCIRIFDRHTYSADSVKGRFTISSDNAQNTVYLHMNSLKPEDTAVYYCAAGSFWGCTRPEGDMDYWGKGTQVTVSS | fold improvement of affinity against the parental clone 2C8 [2]: ~10 fold
– | – | – | – | – | – | 18F-control VHH (18F-AlF-RESCA-modified 2C8v145) (VHH, RESCA chelator (Formula (I)) carrying [18F]-aluminum fluoride; site not stated) VHH: EVQLVESGGGLVQPGGSLRLSCAASGFTFDDYAIGWFRQAPGKGREGVACIRIFDRHTYYADSVKGRFTISSDNSKNTVYLQMNSLRAEDTATYYCAAGFFSGCTRPEGDMDYFGQGTLVQVQS | binding result [3]: no binding; binding result [4]: no binding
0.0497 nM | 0.000845 s⁻¹ | 1.7e+07 M⁻¹ s⁻¹ | 0.137 nM | 0.0019 s⁻¹ | 1.39e+07 M⁻¹ s⁻¹ | 2C8v144 VHH (VHH, also called hu2C8v144) VHH: EVQLVESGGGLVQPGGSLRLSCAASGFTFDDYAIGWFRQAPGKGREGVACIRIFDRHTYYADSVKGRFTISSDNSKNTVYLQMNSLRAEDTATYYCAAGSFWGCTRPEGDMDYFGQGTLVQVQS | –
0.132 nM | 0.00176 s⁻¹ | 1.34e+07 M⁻¹ s⁻¹ | 0.344 nM | 0.0037 s⁻¹ | 1.09e+07 M⁻¹ s⁻¹ | 2C8v142 VHH (VHH, also called hu2C8v142) VHH: EVQLVESGGGLVQPGGSLRLSCAASGFTFDDYVIGWFRQAPGKGREGVACIRIFDRHTYYADSVKGRFTISSDNSKNTVYLQMNSLRAEDTATYYCAAGSFFGCTRPEGDMDYFGQGTLVQVQS | –

Source: patent publication US20230192853A1 (Genentech, published 2023)
